Consider 19 sequences from the DeepSol protein solubility set.

This series is described as follows: soluble on expression in E. coli; label from the status in PepcDB or PDB records.
Take “MAVGKNKGLSKGGKKGGKKKVVDPFSRKDWYDVKAPNMFQTRQIGKTLVNRTQGQRIASDYLKGRVFEVSLADLQKDIDPERSFRKFRLIAEDVQDRNVLCNFHGMDLTTDKYRSMVKKWQTLIEAIVEAKTVDGYLLRVFCIGFTAKDQQSQRKTCYAQQSQVRKIRARMTDIITNEVSGADLKQLVNKLALDSIAKDIEKSCQRIYPLHDVYIRKVKVLKKPRFDVSKLLELHGDGGGKSVEAVVSSEGAVIDRPEGYEPPVQEAVLEHHHHHH”: the “soluble on expression in E. coli” value is “soluble”.

For “MGHHHHHHSHNSARADVYPDGFKGHMLTKSEKNQLLAIASSLFVAFQLRAQHFQGNSRMPVIKPDIANWELSVKLHDKVHTVVASNNGSVFLVEVDGSKLNVTSTWNLFALIVCQR”, the “soluble on expression in E. coli” value was “not soluble”.

For “MVKETKFYDILGVPVTATDVEIKKAYRKCALKYHPDKNPSEEAAEKFKEASAAYEILSDPEKRDIYDQFGEDGLSGAGGAGGFPGGGFGFGDDIFSQFFGAGGAQRPRGPQRGKDIKHEISASLEELYKGRTAKLALNKQILCKECEGRGGKKGAVKKCTSCNGQGIKFVTRQMGPMIQRFQTECDVCHGTGDIIDPKDRCKSCNGKKVENERKILEVHVEPGMKDGQRIVFKGEADQAPDVIPGDVVFIVSERPHKSFKRDGDDLVYEAEIDLLTAIAGGEFALEHVSGDWLKVGIVPGEVIAPGMRKVIEGKGMPIPKYGGYGNLIIKFTIKFPENHFTSEENLKKLEEILPPRIVPAIPKKATVDECVLADFDPAKYNRTRASRGGANYDSDEEEQGGEGVQCASQ”, the “soluble on expression in E. coli” value is reported as “not soluble”.

For “MIIVKNHKFKLDLLQNEANKEKFEGNTACSTAAYTLVREDASTGLTYTADISKVGNQISGEPAQRIKIREHRRIPKFDLPNLKVSKVYKLPLEASYAKGLLLLLIFCFGLSGCNTSKRLPYSHKYSYKELSKDDPHNLTYKGHYKVGKNYKIKGKTYKPHNPKSFTETGYASWYGGLKDGFHGKKTANGDRFNRNLLTAAHKTLPLPCLVKVTNKANNKAVILMVNDRGPFKKNRIIDVSQRAAEILAFKNQGITKVKIEYLPNETEKFLKNINLKKPQSKTLAKNSKKSSSNKVTNNNKCSVNCHIKLINLKYKLAVTP”, the “soluble on expression in E. coli” value is listed as “soluble”.

For the sequence “MLFHDIHDRAVKALPQILDRLIADGYQFAGWNGRDFSVARAPSATAAATVTTGYAKSWAIVIGIDDYARWPKLEYAANDAQAIANTLTGPLGFPSSQVIVLKNAEATRNNILAAFHDRLGDGRAQTNDRVFVFFAGHGATRRLASGRDLGYIIPVDSDPEHLANDAIAMSDLQNIAESLQAKHVLFVMDACYSGLGLTRGGPSSSAYLRENARRIARQMLTAGGADQQVADSGPNGHSVFTWVVLQALAGKGDLNGDGLITGTELAAYVAPAVSAVSAQTPAFGSLPGSQGGEFVFQVPSGEEFLTADTAQLSAAAIALNGRVDAVRPAAVSLEHHHHHH”, the “soluble on expression in E. coli” value is recorded as “soluble”.

For “MAPLLSLCMIVKNEAHQLRRCLQSVQPWVDEIIIVDTGSTDGTIAIACEFTPHVHAVAWQGDFAAARNAALAQATGEWVFYIDADEELVVTDAHWQDQLTAPGAHAINQWSLLRREQSSDRNWSEFWNVRFGRRFPDLHFAGALHEQLCYREREAVVGELQGVYLIHHNQQSQEQFLAKIRDRNIPILETMVQQGDRRLQNLVCLGDHYAACGDSDRSQAWYEQALEEIASAVEQGILPRETTWLRHLLFWVSYRAFEAKDYETAQYYLSYGLRFFDRYPPLLYVAGLFVFELGLPRGALPYFHRCLDLFEAGSYDRTEPFDRQWMTTQPAYSLGYTYMTLQERDRAIAYFQKTLKFNPDYPPAQMYLEQLLRASANQGLEHHHHHH”, the “soluble on expression in E. coli” value is recorded as “not soluble”.

Consider “MIDLLQADGNALPSAVKLAYSPASKTFESYRVMTQVHTNDATKKVIVKLADTPQLTDVLNSTVQMPISVSWGGQVLSTTAKEFEAAALGYSASGVNGVSSSQELVISAAPKTAGTAPTAGNYSGVVSLVMTLGSDNKQVEKNITVTASVDPVIDLLQADGNALPSAVKLAYSPASKTFESYRVMTQVHTNDATKKVIVKLADTPQLTDVLNSTVQMPISVSWGGQVLSTTAKEFEAAALGYSASGVNGVSSSQELVISAAPKTAGTAPTAGNYSGVVSLVMTLGSDNKQVEKNITVTASVDPVIDLLQADGNALPSAVKLAYSPASKTFESYRVMTQVHTNDATKKVIVKLADTPQLTDVLNSTVQMPISVSWGGQVLSTTAKEFEAAALGYSASGVNGVSSSQELVISAAPKTAGTAPTAGNYSGVVSLVMTLGSDNKQVEKNITVTASVDPVILEHHHHHH”, for which the “soluble on expression in E. coli” value was “soluble”.

In the case of “SNAGAPLKAVSAFAPPMKTQDFNLYTNEVHAKFDDYDLGMEYARQHNKPVMLDFTGYGCVNCRKMELAVWTDPKVSSIINNDYVLITLYVDNKTPLTEPVKIMENGTERTLRTVGDKWSYLQRVKFGANAQPFYVLIDNEGNPLNKSYAYDEDISKYINFLQTGLENYRKEK”, the “soluble on expression in E. coli” value is “soluble”.

As for “MGSDKIHHHHHHMNQRMKSHFQYSTLENIPKAFDILKDPPKKLYCVGDTKLLDTPLKVAIIGTRRPTPYSKQHTITLARELAKNGAVIVSGGALGVDIIAQENALPKTIMLSPCSLDFIYPTNNHKVIQEIAQNGLILSEYEKDFMPIKGSFLARNRLVIALSDVVIIPQADLKSGSMSSARLAQKYQKPLFVLPQRLNESDGTNELLEKGQAQGIFNIQNFINTLLKDYHLKEMPEMEDEFLEYCAKNPSYEEAYLKFGDKLLEYELLGKIKRINHIVVLA”, the “soluble on expression in E. coli” value was “not soluble”.

“MKISPSLMCMDLLKFKEQIEFIDSHADYFHIDIMDGHFVPNLTLSPFFVSQVKKLATKPLDCHLMVTRPQDYIAQLARAGADFITLHPETINGQAFRLIDEIRRHDMKVGLILNPETPVEAMKYYIHKADKITVMTVDPGFAGQPFIPEMLDKLAELKAWREREGLEYEIEVDGSCNQATYEKLMAAGADVFIVGTSGLFNHAENIDEAWRIMTAQILAAKSEVQPHAKTA”: the “soluble on expression in E. coli” value is “soluble”.

For “MGSDKIHHHHHHMAKDIEISASESKFILEALRQNYRLDGRSFDQFRDVEITFGKEFGDVSVKMGNTKVHCRISCQIAQPYEDRPFEGLFVISTEISPMAGSQFENGNITGEDEVLCSRIIEKSVRRSGALDVEGLCIVAGSKCWAVRADVHFLDCDGGFIDASCIAVMAGLMHFKKPDITVHGEQIIVHPVNEREPVPLGILHIPICVTFSFFNPQDTEENIKGETNSEISIIDATLKEELLRDGVLTVTLNKNREVVQVSKAGGLPMDALTLMKCCHEAYSIIEKITDQILQLLKEDSEKRNKYAAMLTSENAREI”, the “soluble on expression in E. coli” value was “not soluble”.

With “MKKISRKEYVSMYGPTTGDKVRLGDTDLIAEVEHDYTIYGEELKFGGGKTLREGMSQSNNPSKEELDLIITNALIVDYTGIYKADIGIKDGKIAGIGKGGNKDMQDGVKNNLSVGPATEALAGEGLIVTAGGIDTHIHFISPQQIPTAFASGVTTMIGGGTGPADGTNATTITPGRRNLKWMLRAAEEYSMNLGFLAKGNASNDASLADQIEAGAIGFKIHEDWGTTPSAINHALDVADKYDVQVAIHTDTLNEAGCVEDTMAAIAGRTMHTFHTEGAGGGHAPDIIKVAGEHNILPASTNPTIPFTVNTEAEHMDMLMVCHHLDKSIKEDVQFADSRIRPQTIAAEDTLHDMGAFSITSSDSQAMGRVGEVITRTWQTADKNKKEFGRLKEEKGDNDNFRIKRYLSKYTINPAIAHGISEYVGSVEVGKVADLVLWSPAFFGVKPNMIIKGGFIALSQMGDANASIPTPQPVYYREMFAHHGKAKYDANITFVSQAAYDKGIKEELGLERQVLPVKNCRNVTKKDMQFNNTTAHIEVNPETYHVFVDGKEVTSKPANKVSLAQLFSIF”, the “soluble on expression in E. coli” value was “soluble”.

On to “HMTDLKASSLRALKLMDLTTLNDDDTDEKVIALCHQAKTPVGNTAAICIYPRFIPIARKTLKEQGTPEIRIATVTNFPHGNDDIDIALAETRAAIAYGADEVDVVFPYRALMAGNEQVGFDLVKACKEACAAANVLLKVIIETGELKDEALIRKASEISIKAGADFIKTSTGKVAVNATPESARIMMEVIRDMGVEKTVGFKPAGGVRTAEDAQKYLAIADELFGADWADARHYRFGASSLLASLLKALGHGDGKSASSY”, for which the “soluble on expression in E. coli” value is “soluble”.

As to “MKIVAFNGSPRKGGNTELLIKEVFKPIQEAGIETELVQLGGKLLRGCASCYTCFKTKDGKCAIKTDPMNEFIQKAQEADGIILASPTYYGSVSAEMKAFMDRLGLTTIGQGRTLTRKVGAAVISVRRGGAVTVYDELNRFMLGSGMIVPGSTYWNFGIGEMPGEVFDDAEGLRNMKDLGVQLAWLLKAIHNLEHHHHHH”, the “soluble on expression in E. coli” value is on record as “soluble”.

Turning to “MAEDSNSSESIIVNVTGDDNKSALFGKYDLGKLLGSGAFAKVYQAEDLQNGGESVAIKVVQKKRLKDGLTAHVKREISVMRRLRHPHIVLLSEVLATKTKIYFVMELAKGGELFSRVTSNRFTESLSRKYFRQLISAVRYCHARGVFHRDLKPENLLLDENRDLKVSDFGLSAMKEQIHPDGMLHTLCGTPAYVAPELLLKKGYDGSKADIWSCGVVLFLLNAGYLPFRDPNIMGLYRKIHKAQYKLPDWTSSDLRKLLRRLLEPNPELRITVEEILKDPWFNHGVDPSEIIGIQADDYDLEENGKILNAFDLISSASSSNLSGLFGNFVTPDHCDQFVSDESTAVIMRKVEEVAKQLNLRIAKKKERAIKLEGPHGVANVVVKVRRLTNELVMVEMKNKQRDVGLVWADALRQKLRRLINQPVYKVPDKP”, the “soluble on expression in E. coli” value is listed as “not soluble”.

Turning to “MGSDKIHHHHHHMAIACVMTRASCGVQAPKVIVEVHLSNGLPGFSLVGLPEASVKEAKERVRSALINAGFEFPMQRITVNLAPADLPKQGGRYDLPIAIGILAASEQIPKKAIADAEFVGELALTGQVRPCVGLLPAIIAARDDGHPMFMPLDNRHEAELVGYQQCHFVADLQHLAAFIHGQGQLPKVDNQTQWITESAVDPKLCLSDVIGQYQAKQGLEIAAAGGHNLLLMGPPGTGKSMLASRIIPLLPNLSYQEAIEVAAIHSVAGLNTPSHNFLQRPFRSPHHTCSAISLVGGGSVPKPGEISLAHRGILFLDELPEFPRRVLDCLREPMETGEVVISRAAAKLTFASRFQLIAAMNPSPCGNVDKARSTPDQIQRYLSRLSGPFLDRFDLTVDVPKLPSGALSQANIQAETSISVAARVRKAREKQLERSGVLNNELSPKALKKVANLDQANLIFLEQSVQLLGLSVRSFHKIQRVACTIADLQEEAKVDRAHLAQALGYRAMDRLIARLRQQ”, the “soluble on expression in E. coli” value was “not soluble”.

Consider “MSLNTISGTHFNYHQVCRRKLWLFSAGITMEHTSDLVYEGKLIHETTYQQRPERYQELELDGIKIDFYDAKNRVVHEVKKSNKISPAHRLQLLYYLYVLERNGVLGATGILEYPTLRKKEEVILSDIDRERIREIEQEILQIISHEDCPPVIDSGICKNCSYYEFCFSGEEQEGHHHHHH”, for which the “soluble on expression in E. coli” value is on record as “soluble”.

“MKGIILAGGTGSRLYPITKVTNKHLLPVGRYPMIYHAVYKLKQCDITDIMIITGKEHMGDVVSFLGSGQEFGVSFTYRVQDKAGGIAQALGLCEDFVGNDRMVVILGDNIFSDDIRPYVEEFTNQKEGAKVLLQSVDDPERFGVANIQNRKIIEIEEKPKEPKSSYAVTGIYLYDSKVFSYIKELKPSARGELEITDINNWYLKRGVLTYNEMSGWWTDAGTHVSLQRANALARDINFGKQFNGE”: the “soluble on expression in E. coli” value is reported as “not soluble”.

As for “MLVPRGSMAPIGSVVIVGRIILSGRGGPITAYSQQTRGLLGCIITSLTGRDKNQVEGEVQVVSTATQSFLATCVNGACWTVFHGAGSKTLAGPKGPITQMYTNVDQDLVGWPAPPGARSLTPCTCGSSDLYLVTRHADVIPVRRRGDTRGSLLSPRPISYLKGSSGGPLLCPSGHVVGIFRAAVCTRGVAKAVDFIPVESMETTMR”, the “soluble on expression in E. coli” value is reported as “soluble”.
